Measurements: the supplement of paper PMC10567573

B1: MNAT1 (parent)
chain: LEEALYEYQPLQIETYGPHVPELE
B2: NR2F2 (parent)
chain: VAHVESLQEKSQCALEEYVRSQYP

Variants of: B1
Assay: protein stability index of a GFP-peptide fusion (GPS, HEK-293T) (PSI 1-6); higher = more stable
Conditions: c terminus: a fixed tail appended
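Further: lentivirally expressed fusions sorted by FACS into six bins by GFP to DsRed ratio, PSI derived from sequencing read proportions per bin multiplied by bin number.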

Protein stability index: each site, then its substitutions
A4: C 3.81; R 4.81; G 4.4; I 2.88; L 3.57; T 4.27; K 4.33; P 4.28; F 3.1; M 3.72; N 4.61; D 4.84; H 4.59; Y 3.51; V 1.91; Q 4.89; E 4.56; W 2.96; S 4.67
E2: G 2.24; M 2.71; S 2.4; L 2.96; P 3.7; N 2.4; A 2.26; C 3.03; F 1.71; I 2.67; Q 1.71; V 2.55; R 3.28; T 2.2; D 3.89; H 1.73; W 2.34; K 2.47; Y 1.71
L5: H 4.96; P 5.19; Q 5.38; E 4.58; M 4.64; K 5.06; R 4.32; S 4.59; C 4.71; I 4.87; D 5.12; N 4.81; F 4.33; G 4.8; A 4.97
L1: E 5.1; Q 5.08; H 4.98; N 4.72; G 5.15; K 4.81; C 4.72; A 5.28; I 3.45; T 5.14; R 4.12; P 4.88; S 5.15; Y 4.45; D 4.8; V 4.15; M 3.18; W 4; F 3.81
E3: C 2.42; M 2.19; I 2.13; A 2.43; G 3.41; D 3.19; V 1.74; R 2.79; N 3.67; T 3.16; Q 3; L 2; W 1.45; S 3.63; F 3.39; Y 2.04; P 4.05; H 3.16; K 2.64

Variants of: B2
Assay: as above
Conditions: c terminus: a fixed tail appended

Protein stability index of substitutions, site by site:
Q8: C 2.99; K 3.88; R 3.68; D 3.71; H 3.49; G 3.56; S 3.48; T 3.53
Y23: G 4.14; A 4.1; I 3.9; V 3.76; R 4.51; D 4.53; K 3.98; C 4.13; Q 4.25; L 3.75; F 3.43; T 4.01; H 3.88; W 2.7
P24: I 3.19; L 3.15; C 3.14; V 3.06; Y 2.68; F 2.62; H 3.33; K 3.93; Q 3.35; G 3.72; D 4.29
E17: P 3.5; V 2.26; Q 3.27; F 2.34; A 2.12; T 3.62; D 3.44; W 2.11; M 2.58; I 2.3; R 3.62
A14: S 3.78; Y 3.19; R 3.43; H 4.08; F 2.76; I 3.75; V 3.83; D 4.79
E5: Q 3.52; A 3.27; K 2.96; M 2.69
V4: R 4.06; F 2.85; T 3.59; G 3.94; K 3.79; L 3.08; C 3.81; E 4.37; Q 4.03
Q22: L 3.17; T 3.27; D 4.15; V 3.5; P 3.3; W 2.1; F 2.44; M 2.87; E 4.31; N 3.54
A2: Q 3.33; N 3.1; Y 3.25; F 2.59; R 3.55; C 2.54; E 4.27; W 2.29; T 3.73; K 3.48
V1: A 3.29; Q 3.89; I 3.52; F 3.03; N 4.01; E 4.24
E9: I 1.83; D 3.59; Q 2.62; T 3.11; C 1.85; V 2.72; S 2.73; F 2.13; R 2.53; K 3.11; M 2.2; A 2.55
S6: W 2.77; A 4.04; K 4.12; G 3.24; Q 3.69; R 3.67; H 3.26; D 3.86; N 3.53; E 4.33; M 3.07; Y 2.98
V19: P 4.73; I 3.63; E 5.1; S 4.08; Q 4.03; M 3.65; T 3.67
Y18: V 3.75; T 4.42; R 4.26; P 4.43; W 3.66; C 3.51; M 3.93; L 3.01; F 3.33; I 3.55
E16: N 3.63; R 3.65; A 3.59; F 2.35; C 3.63; M 2.89; Q 3.68; S 3.37; V 3.36; P 3.74; W 2.23; K 3.7; L 3.3; I 3.7
L7: P 4.43; T 4.13; N 4.68; F 3.27; A 3.92; V 4.05; M 3.95; E 4.77; C 3.81
K10: L 3.07; P 3.37; N 3.98; V 3.49; W 2.96; H 3.7; R 4.09; I 2.58; E 4.48; Y 2.63
S11: P 4.04; K 3.41; Y 2.36; R 3.12; Q 2.97; F 1.78; T 3.53; C 3.37; A 4.05; W 2.61; L 3.2; M 2.54
L15: D 4.88; W 2.33; Q 4.73; I 3.89; R 4.37; H 4.35; C 4.01; G 4.89; M 3.84; A 4.75; T 4.91
R20: W 2.56; H 3.86; A 3.49; N 3.14; D 4.71; S 3.65; P 4.16; Q 4.3; Y 3.26; G 4.17; C 3.87
Q12: R 3.77; A 3.33; E 4.6; H 2.88; V 2.83; Y 2.55; M 2.99; K 3.76; S 2.77
S21: I 3.02; M 3.33; N 3.92; R 3.13; A 3.25; V 3.34; C 3.38; E 3.77; F 2.56; T 3.95; W 2.24; G 3.67; Y 2.89; Q 3.53
C13: R 4.23; G 4; S 4.24; H 4.4; P 3.92; W 3.54; T 4.28
H3: L 2.38; R 3.45; G 3.75; M 3.36; V 2.83; Q 3.81; T 3.86; F 2.63; S 3.68; E 4.95; Y 2.77; N 3.77; K 3.43; A 3.48
